This is an account of results in US7592006 (UNIVERSIT CATHOLIQUE DE LOUVAIN, dated 2009).

The target of test [1] is T1, human CD2 (human, UniProt P06729 25-351).
T1 construct: whole, on cells; The plasmid is cited from Peterson and Seed, Nature 1987; also called CD2 antigen; wild-type CD2
T1 sequence (looked up): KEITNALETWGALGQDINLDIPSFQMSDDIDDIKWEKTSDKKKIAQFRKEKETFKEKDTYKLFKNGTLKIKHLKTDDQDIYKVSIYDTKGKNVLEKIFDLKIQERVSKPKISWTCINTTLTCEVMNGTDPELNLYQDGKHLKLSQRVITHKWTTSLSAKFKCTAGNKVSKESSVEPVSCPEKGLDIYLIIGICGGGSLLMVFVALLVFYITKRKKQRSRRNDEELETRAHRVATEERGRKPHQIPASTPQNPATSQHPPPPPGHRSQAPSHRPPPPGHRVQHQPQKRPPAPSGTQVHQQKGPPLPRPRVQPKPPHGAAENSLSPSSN
The test can be described thus: two color flow cytometry on human PBMC, biotinylated LO-CD2a and Leu-5bPE; upper left quadrant taken as Leu-5b-PE positive, LO-CD2a below the quadrant limit (axes inferred: X = FL1 LO-CD2a, Y = FL2 Leu-5b-PE).

Test [2] concerns the target T1, human CD2. The experiment in a line: two color flow cytometry on human PBMC, biotinylated LO-CD2a and Leu-5bPE; Y axis (FL2) taken as Leu-5b-PE, inferred.
The target in test [3] is T1, human CD2. The experiment in a line: flow cytometry on CD2-expressing Jurkat cells, 0 to 4 µg/ml antibody (FIG. 35). The method, then:
Transient expression in COS cells and detection of secreted antibody were carried out as described previously for the chimeric antibody. The humanized antibody was purified by affinity chromatography (Protein A). […] The Jurkat cell line, which expresses CD2, was stained with rat LO-CD2a, the humanized LO-CD2a (LO-CD2aHu), or rat IgG2b or human IgG controls. Antibody concentrations ranged from 0 to 4 ig/ml. […] Bound antibodies were detected with an isotype-specific FITC-conjugated antisera. The results shown in FIG. 35 are expressed as the percentage of cells positively stained by the antibodies over the range of concentrations mentioned hereinabove. Functional studies indicate that the humanized antibody is also capable of inhibiting a primary MLR. Nanogram quantities of LO-CD2a, LO-CD2aHu, rat IgG2b control, or human IgG1 control were added to culture wells containing equivalent numbers of human peripheral blood mononuclear cells (PBMC) from a designated responder and stimulator (irradiated cells). Control wells contained no antibody. The cultures were incubated for 5 days, then pulsed overnight with tritiated thymidine. (3HT). Proliferation is detected by the uptake of 3HT. The results, as given in Table 3 below, are expressed as the mean CPM as recorded by a Beta plate reader.

With “Leu-5b, mouse anti-human CD2 monoclonal antibody (Becton Dickinson)”, the % GATED (quadrant 1UL) with human CD2 [1] turned out to be 23.2%. In the test with human CD2 [2], this molecule gave a Y MEAN fluorescence (quadrant 1UL) of 285, a Y MEAN fluorescence (quadrant 2UR) of 631 and a Y MEAN fluorescence (quadrant 4LR) of 6.54.

B1: humanized LO-CD2a (antibody, V domains shown)
VH: QVQLVQSGAEVKKPGASVKVSCKASGYTFTEYYMYWVRQAPGQGLELMGRIDPEDGSIDYVEKFKKKVTLTADTSSSTAYMELSSLTSDDTAVYYCARGKFNYRFAYWGQGTLVTVSS
VL: DVVMTQSPPSLLVTLGQPASISCRSSQSLLHSSGNTYLNWLLQRPGQSPQPLIYLVSKLESGVPDRFSGSGSGTDFTLKISGVEAEDVGVYYCMQFTHYPYTFGQGTKLEIK
notes: Variable regions were cloned into the MRC light (human kappa) and heavy (human gamma 1) chain vectors; Expressed in COS cells and purified on Protein A; also called LO-CD2aHu; humanized antibody
Take B1: the binding result in the test with human CD2 [3] is listed as “binds”.
